# In article PMC5363963 (Biochemistry and Biophysics Reports, 2016):
# Substitutions are numbered along the chain they refer to. Like-named read-outs stand apart in the source and are kept apart here. Square brackets hold non-standard residues; d marks the D form. Ends that are not written are not given here.
# T1: synthetic amyloid fibrils composed of human islet amyloid polypeptide (human, UniProt P10997 34-70)
# T1 peptide (looked up): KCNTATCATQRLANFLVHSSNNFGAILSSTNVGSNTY
# B1: peptide p5(Pro3) (peptide)
# peptide: GGGYSKAQKAPAKQAKQPQKAQKAPAKQAKQ
# B2: peptide p5 (peptide)
# peptide: B1 peptide with P11Q, P18A, P25Q
# B3: 125I-labeled peptide p5(Pro3) (peptide)
# peptide: B1 peptide
# modifications: also: radioiodinated with iodine-125, site not given here
# B4: 125I-labeled peptide p5(sheet) (peptide)
# peptide: VYKVKTKVKTKVKTKVKT
# modifications: also: radioiodinated with iodine-125, site not given here
# B5: peptide p5(coil) (peptide)
# peptide: GGGYSKGGKGGGKGGKGGGKGGKGGGKGGKG
# B6: 125I-labeled peptide p5(coil) (peptide)
# peptide: B5 peptide
# modifications: also: radioiodinated with iodine-125, site not given here
# B7: peptide p5(D) (peptide)
# peptide: GGG[dY][dS][dK][dA][dQ][dK][dA][dQ][dA][dK][dQ][dA][dK][dQ][dA][dQ][dK][dA][dQ][dK][dA][dQ][dA][dK][dQ][dA][dK][dQ]
# B8: peptide p5(sheet) (peptide)
# peptide: VYKVKTKVKTKVKTKVKT
# Tests used:
# [1] = target: synthetic amyloid fibrils composed of recombinant Vλ6 protein Wil; assay: SPR
# [2] = target: synthetic amyloid fibrils composed of recombinant Vλ6 protein Wil; assay: SPR; remark: listed apart in the source
# [3] = target: synthetic amyloid fibrils composed of recombinant Vλ6 protein Wil; assay: pull-down
# [4] = target: T1, synthetic amyloid fibrils composed of …; assay: pull-down
# [5] = target: synthetic amyloid fibrils composed of Aβ(1-40) peptide; assay: pull-down
Binder,Kd [1],Kd [2],"ka1 (two-state model, first step) [2]","ka2 (two-state model, second step) [2]","kd1 (two-state model, first step) [2]","kd2 (two-state model, second step) [2]",percent inhibition of the binding of m6 (125I-p5) by a 1000-fold molar excess [3],percent inhibition of the binding of m7 (125I-p5(D)) by a 1000-fold molar excess [3],ratio of 1 M/0.15 M pulldown data (bound peptide in 1 M NaCl over that in PBS) [4],ratio of 1 M/0.15 M pulldown data (bound peptide in 1 M NaCl over that in PBS) [5],ratio of 1 M/0.15 M pulldown data (bound peptide in 1 M NaCl over that in PBS) [3]
B1,25 nM,71 nM,120000 M⁻¹ s⁻¹,0.0122 s⁻¹,0.045 s⁻¹,0.0024 s⁻¹,–,–,–,–,–
B2,3.7 nM,15 nM,480000 M⁻¹ s⁻¹,0.0315 s⁻¹,0.203 s⁻¹,0.0011 s⁻¹,95%,80%,–,–,–
B3,–,–,–,–,–,–,–,–,0.07,0.01,0.01
B4,–,–,–,–,–,–,–,–,0.2,0.21,0.35
B5,18 nM,34 nM,75000 M⁻¹ s⁻¹,7.9e-06 s⁻¹,0.001 s⁻¹,1.5e-05 s⁻¹,–,–,–,–,–
B6,–,–,–,–,–,–,–,–,0.12,0.07,0.02
B7,5.4 nM,22 nM,550000 M⁻¹ s⁻¹,0.0074 s⁻¹,0.052 s⁻¹,0.0017 s⁻¹,–,–,–,–,–
B8,10 nM,25 nM,420000 M⁻¹ s⁻¹,0.007 s⁻¹,0.026 s⁻¹,0.0028 s⁻¹,–,–,–,–,–
